Test results taken from patent US20220185894A1 (F STAR THERAPEUTICS, published 2022).

Legend:
[1] = target: T1, recombinant Fc-tagged human LAG-3 (R&D Systems, 2319-L3-050) (human, UniProt P18627 23-450); assay: SPR, BIAcore T200; mAb2 captured on Protein L, human LAG-3 Fc injected
T1 construct: Bought protein; also called LAG-3 Fc; human LAG-3-Fc; not shown: Fc tag of the bought fusion protein
T1 sequence: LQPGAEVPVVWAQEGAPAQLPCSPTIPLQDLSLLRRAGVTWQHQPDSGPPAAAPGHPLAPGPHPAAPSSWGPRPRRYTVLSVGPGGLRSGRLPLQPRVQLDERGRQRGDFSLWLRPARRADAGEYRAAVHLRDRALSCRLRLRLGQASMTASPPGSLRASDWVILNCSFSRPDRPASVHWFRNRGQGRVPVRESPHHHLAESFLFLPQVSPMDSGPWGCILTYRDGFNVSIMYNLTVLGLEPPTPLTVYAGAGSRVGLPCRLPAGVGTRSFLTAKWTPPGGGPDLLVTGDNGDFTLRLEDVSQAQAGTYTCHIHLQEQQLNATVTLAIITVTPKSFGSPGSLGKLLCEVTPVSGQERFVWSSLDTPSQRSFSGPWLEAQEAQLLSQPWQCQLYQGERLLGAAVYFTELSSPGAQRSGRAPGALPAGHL
Procedure: (§1) Protein L (Thermo, 21189) was immobilized on flow cells 1 and 2 of a Series S CM5 chip (GE Healthcare, BR-1005-30) by amine coupling (GE Healthcare, BR-1000-50) to a surface density of 2000 RU by following the manufacturer's instructions for the BIAcore T200 instrument. […] The association time was 3 min and the dissociation time was 6 min. Running buffer was HBS-P (GE Healthcare, BR-1003-68). Both flow cells were regenerated by injecting 10 mM sodium hydroxide (NaOH) at a flow rate of 100 μl/min for 20 seconds. The data were analysed by double referencing against the blank flow cell.
(§2) The binding kinetics were fit with a 1:1 Langmuir model to generate binding association (kₐ) and dissociation (kd) rates. Equilibrium binding constants (KD) were calculated by dividing the dissociation rate by the association rate for each sample. Data analysis was performed with BiaEvaluation software version 3.2.

[2] = target: T2, human PD-L1 expressed on cells (human, UniProt Q9NZQ7 19-290); assay: cell-based or functional assay
[3] = target: T2, human PD-L1 expressed on cells; assay: flow cytometry on HEK cells expressing human PD-L1
Procedure: (§3) HEK cells expressing human or cynomolgus PD-L1 grown in DMEM (Life Technologies, 61965-026) containing 10% FBS (Life Technologies, 10270-1-6), 100 μg/ml Hygromycin B (Melford Laboratories Ltd, Z2475), 15 μg/ml Blasticidin (Melford Laboratories Ltd, B1105) and 1 μg/ml Doxycyclin (Sigma, D9891) were detached from tissue culture flasks using cell dissociation buffer (Life Technologies, 13151-014) and seeded in V-bottom 96-well plates (Costar, 3897) at 2×10⁵ cells/well. The plates were centrifuged at 1500 rpm for 3 min at 4° C. to pellet the cells. A dilution series of the mAb² (or control mAb) was incubated with the cells in a 100 μl volume for 1 h at 4° C. The plates were washed and secondary antibody (Anti-human Fc-488, Jackson ImmunoResearch, 109-546-098) was diluted 1:1000 in PBS and 100 μl was added to the cells for 30 min at 4° C. (plates were kept in the dark). The plates were washed then cells were resuspended in 100 μl PBS containing 1 μg/ml DAPI (Biotium, 40043). The plates were read using Canto II flow cytometer (BD Bioscience). Dead cells were excluded and the fluorescence in the FITC channel (488 nm/530/30) was measured. The data was fit using log (agonist) vs response in GraphPad Prism Software. The plates were read on a BD FACSCanto II cytometer (BD Biosciences) and the data analysed using FlowJo.

[4] = target: T3, cynomolgus PD-L1 expressed on cells (cynomolgus monkey, UniProt Q9NZQ7 19-290 (human entry)); assay: flow cytometry on HEK cells expressing cynomolgus PD-L1
T3 construct: also called cPD-L1; cyno PD-L1
Procedure: as §3

[5] = target: T4, human PD-L1 Fc (R&D Systems, 156-B7) (human, UniProt Q9NZQ7 19-239); assay: SPR, BIAcore T200; mAb2 captured on Protein L, PD-L1 Fc injected
T4 construct: Bought protein; not shown: Fc tag of the bought fusion protein
Procedure: as §1, §2

T4 sequence (Q9NZQ7 19-239 limits assumed): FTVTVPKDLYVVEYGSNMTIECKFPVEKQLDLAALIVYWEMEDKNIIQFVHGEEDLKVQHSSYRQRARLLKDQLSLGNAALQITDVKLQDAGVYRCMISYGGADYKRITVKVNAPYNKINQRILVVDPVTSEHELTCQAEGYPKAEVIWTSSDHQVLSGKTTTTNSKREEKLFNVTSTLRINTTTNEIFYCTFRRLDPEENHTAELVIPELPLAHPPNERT
T2 sequence (Q9NZQ7 19-290 limits assumed): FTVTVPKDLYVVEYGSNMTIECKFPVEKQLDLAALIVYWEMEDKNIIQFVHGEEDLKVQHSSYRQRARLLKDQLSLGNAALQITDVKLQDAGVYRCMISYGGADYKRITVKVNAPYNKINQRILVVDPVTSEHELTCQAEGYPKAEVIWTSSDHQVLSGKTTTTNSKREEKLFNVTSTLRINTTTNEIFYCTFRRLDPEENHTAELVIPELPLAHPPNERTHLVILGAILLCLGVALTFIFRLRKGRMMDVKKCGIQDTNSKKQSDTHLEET
T3 sequence (Q9NZQ7 other isoform, or with tags, fused parts or gaps limits assumed): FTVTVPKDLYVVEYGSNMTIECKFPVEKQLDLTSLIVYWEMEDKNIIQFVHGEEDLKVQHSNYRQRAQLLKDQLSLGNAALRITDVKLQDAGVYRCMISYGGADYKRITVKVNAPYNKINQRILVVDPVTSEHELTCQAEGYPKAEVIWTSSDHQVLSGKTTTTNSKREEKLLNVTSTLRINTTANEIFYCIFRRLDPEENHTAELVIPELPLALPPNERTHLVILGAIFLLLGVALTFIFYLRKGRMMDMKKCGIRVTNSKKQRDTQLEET

Binder | Kd [1] [nM] | koff [1] [s⁻¹] | kon [1] [M⁻¹ s⁻¹] | Maximal IL2 release calculated as % ctrl (84G09 + 25F7) [2] [%] | EC50 [3] [nM] | EC50 [4] [nM] | Kd [5] [nM] | koff [5] [s⁻¹] | kon [5] [M⁻¹ s⁻¹]
anti-human LAG-3/PD-L1 mAb2 FS18-7-36/84G09 with LALA mutation (bispecific antibody, human IgG1, kappa, L234A L235A, also called FS18-7-36/84G09LALA) heavy: EVQLVESGGGLVQPGRSLRLSCAASGFTFDDYAMHWVRQTPGKGLEWVSGISWKSNIIGYADSVKGRFTISRDNAKNSLYLQMNSLRAEDTALYYCARDITGSGSYGWFDPWGQGTLVTVSSASTKGPSVFPLAPSSKSTSGGTAALGCLVKDYFPEPVTVSWNSGALTSGVHTFPAVLQSSGLYSLSSVVTVPSSSLGTQTYICNVNHKPSNTKVDKKVEPKSCDKTHTCPPCPAPEAAGGPSVFLFPPKPKDTLMISRTPEVTCVVVDVSHEDPEVKFNWYVDGVEVHNAKTKPREEQYNSTYRVVSVLTVLHQDWLNGKEYKCKVSNKALPAPIEKTISKAKGQPREPQVYTLPPSWDEPWGEDVSLTCLVKGFYPSDIAVEWESNGQPENNYKTTPPVLDSDGSYFLYSKLTVPYDRWVWPDEFSCSVMHEALHNHYTQKSLSLSPG light: DIQMTQSPSSLSASVGDRVTITCRASQSISSYLNWYQQKPGKAPKPLIYVASSLQSGVPSSFSGSGSGTDFTLTISSLQPEDFATYYCQQSYSNPITFGQGTRLEIKRTVAAPSVFIFPPSDEQLKSGTASVVCLLNNFYPREAKVQWKVDNALQSGNSQESVTEQDSKDSTYSLSSTLTLSKADYEKHKVYACEVTHQGLSSPVTKSFNRGEC | 0.038 | 0.00017 | 4.4e+06 | 71.6 | 3.91 | 2 | 3.5 | 0.00056 | 160000
anti-human LAG-3/PD-L1 mAb2 FS18-7-65/84G09 with LALA mutation (bispecific antibody, human IgG1, kappa, L234A L235A, also called FS18-7-65/84G09 LALA; F518-7-65/84G09LALA) heavy: EVQLVESGGGLVQPGRSLRLSCAASGFTFDDYAMHWVRQTPGKGLEWVSGISWKSNIIGYADSVKGRFTISRDNAKNSLYLQMNSLRAEDTALYYCARDITGSGSYGWFDPWGQGTLVTVSSASTKGPSVFPLAPSSKSTSGGTAALGCLVKDYFPEPVTVSWNSGALTSGVHTFPAVLQSSGLYSLSSVVTVPSSSLGTQTYICNVNHKPSNTKVDKKVEPKSCDKTHTCPPCPAPEAAGGPSVFLFPPKPKDTLMISRTPEVTCVVVDVSHEDPEVKFNWYVDGVEVHNAKTKPREEQYNSTYRVVSVLTVLHQDWLNGKEYKCKVSNKALPAPIEKTISKAKGQPREPQVYTLPPSWDEPWGEDVSLTCLVKGFYPSDIAVEWESNGYAEYNYKTTPPVLDSDGSFFLYSKLTVPYDRWVWPDEFSCSVMHEALHNHYTQKSLSLSPG light: DIQMTQSPSSLSASVGDRVTITCRASQSISSYLNWYQQKPGKAPKPLIYVASSLQSGVPSSFSGSGSGTDFTLTISSLQPEDFATYYCQQSYSNPITFGQGTRLEIKRTVAAPSVFIFPPSDEQLKSGTASVVCLLNNFYPREAKVQWKVDNALQSGNSQESVTEQDSKDSTYSLSSTLTLSKADYEKHKVYACEVTHQGLSSPVTKSFNRGEC | 0.039 | 0.00023 | 5.9e+06 | 70.2 | 4 | 1.84 | 1.1 | 0.00014 | 130000
